Test results reported in article PMC7721647, “The Human RNA Helicase DDX21 Presents a Dimerization Interface Necessary for Helicase Activity” (iScience, 2020).

What was measured:
DDX21Core-DD = target: T1, DDX21Core-DD (human, UniProt Q9NR30 186-620); assay: fluorescence polarization; 50 mM KCl; FP: 50 mM Tris pH 7.5, 50 mM KCl, 5 mM MgCl2, no ATP; Hill-slope fit; temperature not given in the material; conditions: protein: recombinant; tags: C-terminal His6, uncleavable; chain copies: 2; label: 5'-FAM; G4
T1 sequence: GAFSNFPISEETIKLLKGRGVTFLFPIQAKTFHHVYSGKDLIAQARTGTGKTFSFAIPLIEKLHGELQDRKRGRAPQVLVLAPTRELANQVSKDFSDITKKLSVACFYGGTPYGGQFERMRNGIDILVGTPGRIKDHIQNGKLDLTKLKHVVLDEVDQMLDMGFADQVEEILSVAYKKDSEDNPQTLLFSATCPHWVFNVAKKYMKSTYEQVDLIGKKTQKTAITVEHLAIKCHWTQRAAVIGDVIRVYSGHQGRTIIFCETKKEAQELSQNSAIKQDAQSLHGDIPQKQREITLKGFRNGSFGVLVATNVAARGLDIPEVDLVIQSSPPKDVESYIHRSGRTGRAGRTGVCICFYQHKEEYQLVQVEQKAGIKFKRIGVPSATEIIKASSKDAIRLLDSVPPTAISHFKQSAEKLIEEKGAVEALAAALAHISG

DDX21Core = target: T2, DDX21Core (human, UniProt Q9NR30 186-564); assay: as above; conditions: protein: recombinant; label: 5'-FAM; G4
T2 sequence: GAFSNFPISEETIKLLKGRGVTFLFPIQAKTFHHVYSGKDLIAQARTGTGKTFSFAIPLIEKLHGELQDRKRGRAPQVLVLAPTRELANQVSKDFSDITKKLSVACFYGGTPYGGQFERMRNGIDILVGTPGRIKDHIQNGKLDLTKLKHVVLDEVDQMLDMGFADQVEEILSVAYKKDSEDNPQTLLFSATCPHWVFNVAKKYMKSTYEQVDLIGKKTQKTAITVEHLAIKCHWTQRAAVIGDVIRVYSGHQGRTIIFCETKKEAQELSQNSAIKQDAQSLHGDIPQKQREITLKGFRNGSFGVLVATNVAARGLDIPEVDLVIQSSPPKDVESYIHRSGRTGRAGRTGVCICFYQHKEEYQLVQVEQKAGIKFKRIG

DDX21ΔN = target: T3, DDX21ΔN (human, UniProt Q9NR30 186-783); assay: as above; conditions: protein: recombinant; chain copies: 2; label: 5'-FAM; G4
T3 sequence: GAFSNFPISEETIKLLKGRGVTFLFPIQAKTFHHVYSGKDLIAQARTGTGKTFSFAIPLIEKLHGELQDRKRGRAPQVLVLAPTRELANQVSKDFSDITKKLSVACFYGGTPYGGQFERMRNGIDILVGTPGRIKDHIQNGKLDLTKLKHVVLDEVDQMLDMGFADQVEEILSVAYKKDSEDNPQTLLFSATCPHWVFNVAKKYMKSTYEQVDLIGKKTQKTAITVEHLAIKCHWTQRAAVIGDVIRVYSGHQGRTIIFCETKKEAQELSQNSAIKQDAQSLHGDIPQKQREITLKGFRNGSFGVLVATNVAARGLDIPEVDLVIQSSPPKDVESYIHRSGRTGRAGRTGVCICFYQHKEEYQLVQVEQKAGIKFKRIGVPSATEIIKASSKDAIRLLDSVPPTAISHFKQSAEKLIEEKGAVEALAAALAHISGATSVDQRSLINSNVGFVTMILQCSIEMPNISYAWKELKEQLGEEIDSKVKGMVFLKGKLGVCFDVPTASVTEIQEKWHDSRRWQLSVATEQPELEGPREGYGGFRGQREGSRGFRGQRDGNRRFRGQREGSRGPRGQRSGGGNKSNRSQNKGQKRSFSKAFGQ

DDX21ΔNC = target: T4, DDX21ΔNC (human, UniProt Q9NR30 186-710); assay: fluorescence polarization; 50 mM KCl (Table S2 prints 36.7); FP: 50 mM Tris pH 7.5, 50 mM KCl, 5 mM MgCl2, no ATP; Hill-slope fit; temperature not given in the material; conditions: protein: recombinant; chain copies: 2; label: 5'-FAM; G4
T4 sequence: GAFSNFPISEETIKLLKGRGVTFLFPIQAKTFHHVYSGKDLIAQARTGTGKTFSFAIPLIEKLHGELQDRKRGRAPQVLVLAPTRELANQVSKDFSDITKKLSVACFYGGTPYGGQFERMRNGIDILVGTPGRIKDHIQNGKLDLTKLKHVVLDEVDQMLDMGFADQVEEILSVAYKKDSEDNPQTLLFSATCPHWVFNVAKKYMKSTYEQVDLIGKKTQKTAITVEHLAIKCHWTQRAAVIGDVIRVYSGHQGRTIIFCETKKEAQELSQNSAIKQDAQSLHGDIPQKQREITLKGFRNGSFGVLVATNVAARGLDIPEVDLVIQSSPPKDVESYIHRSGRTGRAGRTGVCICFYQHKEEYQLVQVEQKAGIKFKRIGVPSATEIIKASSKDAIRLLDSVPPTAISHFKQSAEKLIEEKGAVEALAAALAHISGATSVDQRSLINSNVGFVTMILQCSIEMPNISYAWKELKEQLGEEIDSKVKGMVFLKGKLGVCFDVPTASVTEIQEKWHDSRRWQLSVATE

## GUUGGGGCGGGCGUUGGGUUUGGGGGGACG (structured_RNA) [Q2 RNA G-quadruplex]
DDX21Core-DD
  Kd: 23.1 ± 3.2 nM
DDX21Core
  Kd: 62.5 ± 4.9 nM
DDX21ΔN
  Kd: 7.6 ± 0.5 nM
DDX21ΔNC
  Kd: 36.5 ± 2.7 nM
